Assay results: publication PMC3586674

Molecular target: T1, ECudA (Entamoeba histolytica, UniProt Q24859 1-283)
T1 sequence: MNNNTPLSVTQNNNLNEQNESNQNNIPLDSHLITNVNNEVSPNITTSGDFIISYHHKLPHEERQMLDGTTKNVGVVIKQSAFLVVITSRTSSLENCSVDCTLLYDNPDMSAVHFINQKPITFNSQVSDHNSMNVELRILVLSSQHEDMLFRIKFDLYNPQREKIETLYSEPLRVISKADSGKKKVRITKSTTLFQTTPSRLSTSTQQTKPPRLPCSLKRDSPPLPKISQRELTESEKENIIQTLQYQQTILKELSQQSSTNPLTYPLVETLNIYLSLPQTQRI
Assay: competition

B1: WT 20-mer (dsDNA)
DNA 1: CACTGTGAGAATTTTCTATT
DNA 2: AATAGAAAATTCTCACAGTG
**Q.** Does B1 bind?
**A.** binds
